Test results as given in article PMC6762210, “The monothiol glutaredoxin GrxD is essential for sensing iron starvation in Aspergillus fumigatus” (PLoS Genetics, 2019).
Substitutions are numbered along the chain they refer to. In names and notes the source's numbering stands.

B1: HapX^161-491 (A. fumigatus HapX C-terminus with all four cysteine-rich regions) (domain or fragment, UniProt Q4WER3 161-491, looked up)
chain: KGLAPLTTSTPQARSSDRPDNGDASNNDSGEGREEVPLGCNDCSTSHCQCIEDAFTMPGVVAQEQSRRLDTTKPGLSEPQIKPDPEEMEIDFTSRFAATQQQDQSPTSVSSPAVDPCGFCSDGTPCICAEMAAQEEQRPRRNSFENNRLAPIQNLSQFTPPPSDGDVRSDVTLPPISQATNPCANGPGTCAQCLADPRRTLFCKTLAASRSPSAAPSGCCGGKGADGGCCQSRNTNVSRGRSGSNNNTSSGSSAAPSLTLSCADAYTTLSRHPNFSRATDELSTWLPKLHTLPKPRDFPLTDRGVPRAALEVEAASVMGVLRYFDRRFADK
notes: HapX of Aspergillus fumigatus (Afu5g03920), amino acids 161-491 (cysteine-rich C-terminus), from a synthetic gene; also called AfuHapX^161-491; pnCS-HapX161-491; source: E. coli BL21(DE3), untagged, bicistronically co-expressed with GrxD-His6; in crude cell extract, then co-purified (Ni-Sepharose, SEC)
B2: GrxD^C191A (recombinant GrxD with cysteine 191 mutated to alanine) (natural protein)
chain: MSTLNEITSDADFSAHTSSLPPSTLLVLYFHAPWAAPCAQMRAVLSALASQHPVTTPPTISFVSVNAEELPDISEEYNVTAVPYVVLIRNGQILESISGSDAVKVRDAVERHAGAGSGAGADGANKTAIPPPLTATPRENAPAAAAQPPAPSTQALTPEQSKEALFARLAELVKAAPVMLFMKGTPSAPQAGFSRQLVAILREKSVKYGFFNILADEDVRQGLKEFADWPTFPQLWVEGELVGGLDIVKEEINNDPDFLSQYSINKAPASA
notes: GrxD of Aspergillus fumigatus (Afu2g14960), full length, C191 of the CGFS motif mutated to A; source: E. coli BL21(DE3), co-produced with HapX^161-491, purified (Ni-chelate, TEV protease, SEC); not shown: His6, C-terminal, cleaved

Key:
[1] = target: T1, GrxD (recombinant full-length GrxD after removal of the His-tag by TEV protease) (A. fumigatus, UniProt Q4X024 1-271); assay: SEC; Ni-chelate eluate digested with TEV protease and loaded on Superdex 200 prep grade 26/60 in 25 mM HEPES pH 7.5, 150 mM NaCl, 2 mM glutathione; apparent masses from protein calibration standards; fractions checked by SDS-PAGE; conditions: both partners purified
T1 construct: GrxD of Aspergillus fumigatus (Afu2g14960), full length, from a synthetic gene; Residues of the TEV site may be left at the C-terminus after cleavage (surmise); source: E. coli BL21(DE3), co-expressed with HapX^161-491, purified (Ni-Sepharose, TEV protease, Superdex 200 SEC); not shown: His6, C-terminal, cleaved
T1 sequence (looked up): B2 chain with A191C

[2] = target: B1; assay: as above; conditions: both partners purified

Row | Binder | stoichiometry N [1] | binding result [2]
1 | B1 | ~1 HapX^161-491 per GrxD (2:2) | 
2 | B2 |  | binds
